Data set [1] concerns HeLa Kyoto. The data set can be described thus: solubility change mitosis vs G1/S (difference of NP-40 vs SDS log2 ratios) (log2 ratio difference); higher = more soluble in mitosis.
The subject of data set [2] is HeLa Kyoto. The data set can be described thus: solubility in G1/S (NP-40 vs SDS abundance) (log2 ratio); higher = more soluble. Particulars: cell cycle stage: G1/S.
The test system of data set [3] is HeLa Kyoto. Briefly: thermal stability score vs G1/S (z-score of summed log2 fold changes over temperatures); higher = more thermally stable than in G1/S.
The subject of data set [4] is HeLa Kyoto. Briefly: melting temperature (median over replicates), in situ; higher = more thermally stable.
Where [5] appears, read: cell cycle stage: early G1 (4.5 h after nocodazole release).
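Wherever melting temperature (median over replicates), in situ is given: HeLa Kyoto cells synchronized by double thymidine or nocodazole block, proteins quantified by TMT10plex mass spectrometry, three independent biological replicates.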
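Wherever solubility change mitosis vs G1/S (difference of NP-40 vs SDS log2 ratios) is given: synchronized HeLa Kyoto cells (double thymidine block for G1/S, nocodazole release for mitosis), protein amounts in NP-40 versus SDS lysates quantified by mass spectrometry, three biological replicates.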
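Wherever solubility in G1/S (NP-40 vs SDS abundance) is given: HeLa Kyoto cells arrested at G1/S by double thymidine block, proteins quantified by TMT10plex mass spectrometry in mild NP-40 versus SDS extracts, three biological replicates.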
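Wherever thermal stability score vs G1/S (z-score of summed log2 fold changes over temperatures) is given: synchronized HeLa Kyoto cells, proteins quantified by TMT10plex mass spectrometry, three biological replicates, mitosis taken 0.5 h after nocodazole release, G1/S directly after double thymidine block.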

Regarding “MAVFADLDLRAGSDLKALRGLVETAAHLGYSVVAINHIVDFKEKKQEIEKPVAVSELFTTLPIVQGKSRPIKILTRLTIIVSDPSHCNVLRATSSRARLYDVVAVFPKTEKLFHIACTHLDVDLVCITVTEKLPFYFKRPPINVAIDRGLAFELVYSPAIKDSTMRRYTISSALNLMQICKGKNVIISSAAERPLEIRGPYDVANLGLLFGLSESDAKAAVSTNCRAALLHGETRKTAFGIISTVKKPRPSEGDEDCLPASKKAKCEG [RPP30]”, the “solubility change mitosis (log2)” value in data set [1] is -0.0188. In data set [2], the “solubility in G1/S (log2)” value was -0.0469. For the same sequence, the figures for the thermal stability score in data set [3] (setting [5]) and in data set [3] (cell cycle stage: mitosis) were -0.0475 and -1.92, respectively. Also, the melting temperature in data set [4] (cell cycle stage: G1/S) is 55.3 °C; in data set [4] (cell cycle stage: mitosis), 56.1 °C.
“MAVFDTPEEAFGVLRPVCVQLTKTQTVENVEHLQTRLQAVSDSALQELQQYILFPLRFTLKTPGPKRERLIQSVVECLTFVLSSTCVKEQELLQELFSELSACLYSPSSQKPAAVSEELKLAVIQGLSTLMHSAYGDIILTFYEPSILPRLGFAVSLLLGLAEQEKSKQIKIAALKCLQVLLLQCDCQDHPRSLDELEQKQLGDLFASFLPGISTALTRLITGDFKQGHSIVVSSLKIFYKTVSFIMADEQLKRISKVQAKPAVEHRVAELMVYREADWVKKTGDKLTILIKKIIECVSVHPHWKVRLELVELVEDLLLKCSQSLVECAGPLLKALVGLVNDESPEIQAQCNKVLRHFADQKVVVGNKALADILSESLHSLATSLPRLMNSQDDQGKFSTLSLLLGYLKLLGPKINFVLNSVAHLQRLSKALIQVLELDVADIKIVEERRWNSDDLNASPKTSATQPWNRIQRRYFRFFTDERIFMLLRQVCQLLGYYGNLYLLVDHFMELYHQSVVYRKQAAMILNELVTGAAGLEVEDLHEKHIKTNPEELREIVTSILEEYTSQENWYLVTCLETEEMGEELMMEHPGLQAITSGEHTCQVTSFLAFSKPSPTICSMNSNIWQICIQLEGIGQFAYALGKDFCLLLMSALYPVLEKAGDQTLLISQVATSTMMDVCRACGYDSLQHLINQNSDYLVNGISLNLRHLALHPHTPKVLEVMLRNSDANLLPLVADVVQDVLATLDQFYDKRAASFVSVLHALMAALAQWFPDTGNLGHLQEQSLGEEGSHLNQRPAALEKSTTTAEDIEQFLLNYLKEKDVADGNVSDFDNEEEEQSVPPKVDENDTRPDVEPPLPLQIQIAMDVMERCIHLLSDKNLQIRLKVLDVLDLCVVVLQSHKNQLLPLAHQAWPSLVHRLTRDAPLAVLRAFKVLRTLGSKCGDFLRSRFCKDVLPKLAGSLVTQAPISARAGPVYSHTLAFKLQLAVLQGLGPLCERLDLGEGDLNKVADACLIYLSVKQPVKLQEAARSVFLHLMKVDPDSTWFLLNELYCPVQFTPPHPSLHPVQLHGASGQQNPYTTNVLQLLKELQ [TTI1]”: in data set [1], the “solubility change mitosis (log2)” value was -0.179. Besides, the “solubility in G1/S (log2)” value in data set [2] was -0.12. The thermal stability score was 0.152 in data set [3] (setting [5]) and 0.696 in data set [3] (cell cycle stage: mitosis). In addition, the values for the melting temperature in data set [4] (cell cycle stage: G1/S) and in data set [4] (cell cycle stage: mitosis) were 49.6 °C and 49.9 °C, respectively.
As to “MAVLLETTLGDVVIDLYTEERPRACLNFLKLCKIKYYNYCLIHNVQRDFIIQTGDPTGTGRGGESIFGQLYGDQASFFEAEKVPRIKHKKKGTVSMVNNGSDQHGSQFLITTGENLDYLDGVHTVFGEVTEGMDIIKKINETFVDKDFVPYQDIRINHTVILDDPFDDPPDLLIPDRSPEPTREQLDSGRIGADEEIDDFKGRSAEEVEEIKAEKEAKTQAILLEMVGDLPDADIKPPENVLFVCKLNPVTTDEDLEIIFSRFGPIRSCEVIRDWKTGESLCYAFIEFEKEEDCEKAFFKMDNVLIDDRRIHVDFSQSVAKVKWKGKGGKYTKSDFKEYEKEQDKPPNLVLKDKVKPKQDTKYDLILDEQAEDSKSSHSHTSKKHKKKTHHCSEEKEDEDYMPIKNTNQDIYREMGFGHYEEEESCWEKQKSEKRDRTQNRSRSRSRERDGHYSNSHKSKYQTDLYERERSKKRDRSRSPKKSKDKEKSKYR [PPIL4]”, in data set [1], the “solubility change mitosis (log2)” value was 0.0472. Besides, the “solubility in G1/S (log2)” value in data set [2] is -0.23. Further, the figures for the thermal stability score in data set [3] (setting [5]) and in data set [3] (cell cycle stage: mitosis) were 1.3 and 1.99, respectively. Besides, the values for the melting temperature in data set [4] (cell cycle stage: G1/S) and in data set [4] (cell cycle stage: mitosis) were 49.2 °C and 50.3 °C, respectively.
As to “MAVPAAAMGPSALGQSGPGSMAPWCSVSSGPSRYVLGMQELFRGHSKTREFLAHSAKVHSVAWSCDGRRLASGSFDKTASVFLLEKDRLVKENNYRGHGDSVDQLCWHPSNPDLFVTASGDKTIRIWDVRTTKCIATVNTKGENINICWSPDGQTIAVGNKDDVVTFIDAKTHRSKAEEQFKFEVNEISWNNDNNMFFLTNGNGCINILSYPELKPVQSINAHPSNCICIKFDPMGKYFATGSADALVSLWDVDELVCVRCFSRLDWPVRTLSFSHDGKMLASASEDHFIDIAEVETGDKLWEVQCESPTFTVAWHPKRPLLAFACDDKDGKYDSSREAGTVKLFGLPNDS [THOC3]”, the “solubility change mitosis (log2)” value in data set [1] stood at 0.047. Also, in data set [2], the “solubility in G1/S (log2)” value is -0.421. Moreover, the thermal stability score was -1.08 in data set [3] (setting [5]) and 1.13 in data set [3] (cell cycle stage: mitosis). The melting temperature in data set [4] (cell cycle stage: G1/S) was 50.6 °C; in data set [4] (cell cycle stage: mitosis), 51.9 °C.
With “MAVPFVEDWDLVQTLGEGAYGEVQLAVNRVTEEAVAVKIVDMKRAVDCPENIKKEICINKMLNHENVVKFYGHRREGNIQYLFLEYCSGGELFDRIEPDIGMPEPDAQRFFHQLMAGVVYLHGIGITHRDIKPENLLLDERDNLKISDFGLATVFRYNNRERLLNKMCGTLPYVAPELLKRREFHAEPVDVWSCGIVLTAMLAGELPWDQPSDSCQEYSDWKEKKTYLNPWKKIDSAPLALLHKILVENPSARITIPDIKKDRWYNKPLKKGAKRPRVTSGGVSESPSGFSKHIQSNLDFSPVNSASSEENVKYSSSQPEPRTGLSLWDTSPSYIDKLVQGISFSQPTCPDHMLLNSQLLGTPGSSQNPWQRLVKRMTRFFTKLDADKSYQCLKETCEKLGYQWKKSCMNQVTISTTDRRNNKLIFKVNLLEMDDKILVDFRLSKGDGLEFKRHFLKIKGKLIDIVSSQKIWLPAT [CHEK1]”, the “solubility change mitosis (log2)” value in data set [1] is -0.07. Further, in data set [2], the “solubility in G1/S (log2)” value was 0.104. The results for the thermal stability score in data set [3] (setting [5]) and in data set [3] (cell cycle stage: mitosis) were 1.82 and 1.62, respectively. For the same sequence, the melting temperature was found to be 51.7 °C in data set [4] (cell cycle stage: G1/S) and 51.9 °C in data set [4] (cell cycle stage: mitosis).
